These results are taken from US10246721B2, “Sugar transporters” (CARNEGIE INSTITUTION OF WASHINGTON, priority 2009, dated 2019).

Entries after “also recorded” stand apart in the source; their conditions may differ.

Assay [1] concerns the target T1, SWEET1 (Arabidopsis thaliana, UniProt Q8L9J7).
T1 sequence (Q8L9J7 1-247): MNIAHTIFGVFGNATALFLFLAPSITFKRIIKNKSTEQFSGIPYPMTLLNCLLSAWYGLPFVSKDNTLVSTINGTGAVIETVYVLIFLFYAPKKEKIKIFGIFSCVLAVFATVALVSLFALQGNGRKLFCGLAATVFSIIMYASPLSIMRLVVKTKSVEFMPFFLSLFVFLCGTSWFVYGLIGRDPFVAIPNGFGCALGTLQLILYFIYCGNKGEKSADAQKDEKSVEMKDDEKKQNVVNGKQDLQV
In words: FRET glucose sensor FLIPglu600μΔ13V co-transfected with SWEET1 in HEK293T cells, cytochalasin B. In kind it is cell-based. Particulars: 20 μM cytochalasin B. Also noted: SWEET1, SWEET8 and OsSWEET11 ORFs were amplified by RT-PCR using specific primers from Arabidopsis and rice, respectively; expressed in transfected cells; host or cells: HEK293T. The protocol: Similar results were obtained for several Arabidopsis paralogs of this gene family.
FRET analysis. Cell culture, transfection, image acquisition and FRET analysis were performed as described previously.
To identify novel glucose transporters from the reference plant Arabidopsis, genes encoding uncharacterized polytopic membrane proteins from the plant membrane protein database Aramemnon, available on the internet at “aramemnon.botanik.uni-koeln.de”,—were screened using a mammalian expression system. Candidate genes were coexpressed with a high-sensitivity FRET glucose sensor (i.e. FLIPglu600μΔ13V) in human embryonic kidney HEK293T cells, which are characterized by low endogenous glucose uptake activity. […] To determine whether SWEET1 can also mediate efflux from the cytosol, we expressed the FRET glucose sensor FLIPglu600μΔ13V^ER in the lumen of the endoplasmic reticulum (ER; FIG. 9B). Topologically, uptake across the plasma membrane (PM) is initiated from the extracellular side of the carrier, while ‘export’ to the ER is initiated from the cytoplasmic side of the transporter (FIG. 9C). […] SWEET1 may thus function as a glucose uniporter, for which the direction of transport depends only on the glucose gradient across the membrane. […]

The target of assay [2] is T1, SWEET1. The experiment in a line: Inhibition of SWEET1-mediated glucose uptake in yeast EBY4000 by competing sugars. In kind it is cell-based. Also noted: SWEET1, SWEET8 and OsSWEET11 ORFs were amplified by RT-PCR using specific primers from Arabidopsis and rice, respectively. Particulars: 5 mM D-glucose; competitor at 10-fold excess (50 mM). How it is done:
Competitors were added at 10-fold excess (final concentration 50 mM). Relative activity was normalized to D-glucose uptake rate [100%]. Data are mean±S.D.
Yeast uptake. Yeast cells were grown in SD medium supplemented 2% maltose and auxotrophic markers. Cells were harvested at OD600 0.5-0.7 by centrifugation, and washed twice in ice-cold distilled water. Cell pellets were weighed after the supernatant had been removed. Cells were resuspended 5-10% (w/v) in 40 mM potassium phosphate buffer, pH 6.0. Cells were pre-incubated in potassium phosphate buffer for 5 min at 30° C. For each reaction, 330 μl pre-warmed buffer containing 20 mM glucose (0.55 μCi D-[U-^14C] glucose; 590 KBq/μmol, Amersham Pharmacia Biotech Inc.) was added to an equal volume of cells. 120 μl aliquot were withdrawn and transferred to the ice-cold water. Cells were harvested by vacuum filtration onto a glassfiber filters (GF/C, Whatman), and washed twice in 10 ml ice-cold water. Filters were transferred to scintillation vials containing 5 ml of Ultima Gold XR Scintillator liquid (Perkin Elmer). Radioactivity taken up by the cells was measured by liquid scintillation spectrometry. To determine substrate specificity for SWEET1 compared to D-glucose, a ten-fold excess of competing sugar species was used. To determine the pH-dependence of SWEET1 activity, 40 mM potassium phosphate uptake buffer at specified pH was used. […]

Assay [3] can be described thus: 14C glucose uptake data for C. elegans homologs (FIG. 42). In kind it is cell-based. The conditions noted are these: 1 mM and 10 mM glucose. The source says: FIGS. 42A and 42B show the 14C glucose uptake data for five of the C. elegans homologs.
At least 3, 4 nd 5 are active. (code for names of C elegans genes:Ce1: C06G8.1; Ce2: K06A4.4; Ce3: Y39A1A.8; Ce4: K11D12.5; Ce5: K02D7.5; (worm mutants of Ce5: K02D7.5 show increased fat accumulation, consistent with reduced efflux of glucose from these cells).

The target in a further assay is T2, SGLT1 (Homo sapiens, UniProt P13866).
T2 construct: The ORF of SGLT1 (Invitrogen, Carlsbad, Calif.) was amplified by PCR and cloned into pCR2.1-TOPO; host or cells: Xenopus laevis oocytes injected with cRNA from pOO2
T2 sequence (P13866 1-664): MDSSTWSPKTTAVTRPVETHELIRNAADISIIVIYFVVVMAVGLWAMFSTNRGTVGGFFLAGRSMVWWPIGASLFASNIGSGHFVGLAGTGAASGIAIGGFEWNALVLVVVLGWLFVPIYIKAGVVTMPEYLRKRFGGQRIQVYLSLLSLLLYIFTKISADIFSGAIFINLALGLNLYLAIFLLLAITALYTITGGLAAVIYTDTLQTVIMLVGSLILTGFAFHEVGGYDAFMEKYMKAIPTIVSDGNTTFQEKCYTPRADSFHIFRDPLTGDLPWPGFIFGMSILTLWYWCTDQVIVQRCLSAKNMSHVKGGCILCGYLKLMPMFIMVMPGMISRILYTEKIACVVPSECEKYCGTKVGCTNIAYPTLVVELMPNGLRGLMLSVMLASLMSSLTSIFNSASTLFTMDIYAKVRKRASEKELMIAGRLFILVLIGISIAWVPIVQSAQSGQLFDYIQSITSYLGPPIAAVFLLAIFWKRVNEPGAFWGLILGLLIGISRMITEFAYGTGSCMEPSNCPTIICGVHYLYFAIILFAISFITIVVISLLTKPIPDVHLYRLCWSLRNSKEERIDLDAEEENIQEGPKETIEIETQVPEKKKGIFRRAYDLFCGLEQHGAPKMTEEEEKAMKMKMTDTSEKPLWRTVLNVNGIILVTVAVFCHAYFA
In words: Coexpression with SGLT1 in Xenopus oocytes, glucose accumulation. In kind it is cell-based. Particulars: coexpressed with SGLT1. The source says:
Data are mean±SE, n=7. Inset indicates concentrative uptake of glucose by SGLT 1 and glucose efflux (‘leak’) caused by OsSWEET11.
All experiments were repeated independently at least 6 times. Error bars are means±SD.
Human SGLT1 sodium glucose cotransporter (“S”) which has been previously shown to be a secondary active glucose importer. SGLT1 is […] expressed in Xenopus oocytes and can mediate uptake of 14C labelled glucose into the oocyte. When RAG1AP1 (“R”) is coexpressed, less uptake is seen in the oocytes. This is compatible with a glucose ‘leak’ due to RAG1AP1 activity that prevents high accumulation of glucose in the SGLT1 expressing cells.
Tracer uptake in Xenopus oocytes. The assay was performed with modification as described in Detaille et al. Two days after injection, groups of 7 to 16 oocytes were transferred into tubes containing 200 μL MBS and 1 mM D-glucose (4 μCi/ml D-[^14C(U)]-glucose; 319 mCi/mmol, PerkinElmer). After incubation at 20° C. for one hour, and the cells were washed by adding 1 ml ice-cold MBS. Incubation was stopped by adding ice-cold MBS buffer. The ooctyes were washed three times in ice-cold MBS buffer. The cells were solubilized with 100 μl 1% (w/v) SDS, and measured individually.
The ORF of SGLT1 (Invitrogen, Carlsbad, Calif.) was amplified by PCR and cloned into pCR2.1-TOPO (Invitrogen). […]

In assay [4] the test system is Xenopus oocytes. In words: Tracer [14C]-glucose uptake in Xenopus oocytes. In kind it is cell-based, Xenopus laevis. Particulars: 1 mM D-glucose, 1 h. How it is done: Xenopus oocytes isolation and RNA injection. After linearization of the pOO2 plasmids with MluI, capped cRNAs were synthesized in vitro by SP6 RNA polymerase using mMESSAGE mMACHINE kit (Ambion, Inc., Austin, Tex.). Xenopus laevis oocytes were kindly provided by M. Goodman (Stanford University). Microinjection was carried out as described by Ballatori et al.. 25 ng to 50 ng of each cRNA was injected into healthy-looking oocytes (RNAse-free water was used as control). The injected oocytes were then maintained at 18° C. in modified Barth's saline (MBS: (in mM) 88 NaCl, 1 KCl, 2.4 NaHCO3, 0.82 MgSO4, 0.33 Ca(NO3)2, 0.41 CaCl2, and 20 HEPES-Tris, pH 7.5) with 100 μM gentamycin, 100 U/ml penicillin and 100 μM streptomycin solution for 2-3 d. The incubation buffer was changed once per day.
Tracer uptake in Xenopus oocytes. The assay was performed with modification as described in Detaille et al. Two days after injection, groups of 7 to 16 oocytes were transferred into tubes containing 200 μL MBS and 1 mM D-glucose (4 μCi/ml D-[^14C(U)]-glucose; 319 mCi/mmol, PerkinElmer). After incubation at 20° C. for one hour, and the cells were washed by adding 1 ml ice-cold MBS. Incubation was stopped by adding ice-cold MBS buffer. The ooctyes were washed three times in ice-cold MBS buffer. The cells were solubilized with 100 μl 1% (w/v) SDS, and measured individually. […]

For assay [5], the system named is Xenopus oocytes. In words: Tracer efflux assay in Xenopus oocytes injected with [14C]-glucose. In kind it is cell-based, Xenopus laevis. Particulars: S.E., n>7. How it is done: 50 nl of 10 mM radiolabeled glucose (0.18 μCi/μl) were injected and radiotracer efflux was measured over time. Data are mean±SE (n>10 cells).
Tracer efflux assay in Xenopus oocytes. Efflux was measured essentially as described. Three days after cRNA injection, oocytes were injected with 50 nl solution containing 10 mM D-glucose with 0.18 μCi/μl D-[^14C(U)]-glucose. Cells were immediately washed once in MBS. At defined time points, the reaction buffer (950 μl) was removed for scintillation counting and replaced with fresh medium. Finally, the oocytes were solubilized with 1% SDS and analyzed for radioactivity.
The ORF of SGLT1 (Invitrogen, Carlsbad, Calif.) was amplified by PCR and cloned into pCR2.1-TOPO (Invitrogen). The SGLT1 ORF was excised with EcoRI/XhoI and cloned into the corresponding sites in pOO2. The splice variant RAG1AP1-1 in pDNR-LIB (Clone ID: 4076256, Open Biosystems, Huntsville, Ala.) was restricted with EcoRI/XhoI and cloned into pOO2. RAG1AP1-2 in pCMV-SPORT6 (Clone ID: 3896154, Open Biosystems, Huntsville, Ala.) was transferred into the pOO2-GW (D. Loqué, unpublished) by in vitro LR recombination (Gateway). RAG1AP1-3aa was mutated to Y216A, L218A, L219A (putative internalization motifs) by site-directed mutagenesis and cloned by in vitro BP recombination in pDONR221-f1 and further mobilized into pOO2-GW by LR reaction. […]

In the case of `C=C1[C@@H](C)[C@H]2[C@H](Cc3ccccc3)NC(=O)[C@]23OC(=O)/C=C/[C@H](O)CCC[C@@H](C)C/C=C/[C@H]3[C@@H]1O` [cytochalasin B], on SWEET1 [1], the “effect of cytochalasin B on SWEET1 (GLUE1)-mediated glucose uptake” value was “insensitive; also recorded: did not affect; also recorded: insensitivity”.

As to `CO[C@@H]([C@H](O)[C@H](O)CO)[C@@H](O)C=O` [3-O-methylglucose], the “inhibition of SWEET1-mediated glucose uptake by competitor sugar” value on SWEET1 [2] is recorded as “marginally inhibited”.

B1: CeSWEET1: C. elegans SWEET homolog (protein, UniProt O45102 1-299, looked up)
Sugar transporter SWEET1: MLEVVLQVLSISAITTTIALFFCGIPICMQIRRQGAVGDISGVPFLMGVLGGSFWLRYGLLKMDYVMIIVNVVGVACMAFYCVFFLIYSLPKKTFTCQLILVTSTIGGMVLWIALKPNLDYLGVICMTFNIMNFGAPLAGLGVVLKNREVSTLPLPMCVANFLVSSQWCLYGNLVSDIYIIIPNGIGMFLAIVQLALFVVLPIRENEKSPLEKLASWFTGRDSKVKDLERGDCIVSSPPSSPQKVPNETRSDVEDKFDKLMAETSSTIPSDSRRGSMGSPPSYKSRSSSDPDLSSIQSP
On to B1, for which the “14C glucose uptake activity” value in assay [3] is “active”. Further, the “effect of coexpression on SGLT1-mediated glucose accumulation in oocytes” value in the assay with SGLT1 was “counteract secondary active glucose accumulation”. Further, in the assay on Xenopus oocytes [4], the “[14C]-glucose uptake into Xenopus oocytes” value is “mediates glucose uptake; also recorded: weak, but significant glucose uptake”.

B2: RAG1AP1: human homolog of the SWEET sugar transporters (SLC50) (protein)
chain: MEAGGFLDSLIYGACVVFTLGMFSAGLSDLRHMRMTRSVDNVQFLPFLTTEVNNLGWLSYGALKGDGILIVVNTVGAALQTLYILAYLHYCPRKRVVLLQTATLLGVLLLGYGYFWLLVPNPEARLQQLGLFCSVFTISMYLSPLADLAKVIQTKSTQCLSYPLTIATLLTSASWCLYGFRLRDPYIMVSNFPGIVTSFIRFWLFWKYPQEQDRNYWLLQT
Turning to B2, the “effect of coexpression on SGLT1-mediated glucose accumulation in oocytes” value in the assay with SGLT1 was “less uptake; also recorded: counteract secondary active glucose accumulation; also recorded: counteracted SGLT1-mediated glucose accumulation”. Also, in the assay on Xenopus oocytes [5], the “% glucose released within 2 min” value amounted to 5.27±0.29%. In the assay on Xenopus oocytes [4], the “[14C]-glucose uptake into Xenopus oocytes” value was “unable to mediate glucose accumulation”.
